# Patent US20210269549A1, “ANTI-SAS1B ANTIBODIES, ASSOCIATED METHODS OF USE, AND COMPOSITIONS AND METHODS FOR DETECTING AND TREATING CANCER” (UNIVERSITY OF VIRGINIA PATENT FOUNDATION, priority 2015, published 2021)
# Experiments:
# mouse SAS1B = biological target: T1, mouse SAS1B (Mus musculus, UniProt Q6HA09); assay: Western blot of mouse SAS1B probed with anti-human SAS1B murine mAbs; assay type: binding; details: Table 1
# T1 sequence (Q6HA09 24-435): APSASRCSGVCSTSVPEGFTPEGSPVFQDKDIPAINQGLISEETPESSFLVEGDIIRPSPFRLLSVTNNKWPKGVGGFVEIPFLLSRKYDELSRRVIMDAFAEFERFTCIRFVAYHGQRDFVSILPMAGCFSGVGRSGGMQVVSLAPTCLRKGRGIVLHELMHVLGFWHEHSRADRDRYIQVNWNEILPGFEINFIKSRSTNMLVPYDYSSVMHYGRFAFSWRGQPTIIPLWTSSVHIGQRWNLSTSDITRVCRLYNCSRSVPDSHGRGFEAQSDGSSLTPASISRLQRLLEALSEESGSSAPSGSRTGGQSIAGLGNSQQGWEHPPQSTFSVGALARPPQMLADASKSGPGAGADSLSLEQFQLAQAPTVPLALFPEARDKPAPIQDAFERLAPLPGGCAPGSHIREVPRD
# Source text: A western blot of human SAS1B and mouse SAS1B was probed with anti-human SAS1B murine monoclonal antibodies SB1, SB2, SB3, SB4, SB5, SB6, and SB7.
# SAS1B+ tumor cell lines = assay: Confocal immunofluorescence microscopy on live cells (FIG. 25); assay type: cell-based
# Source text: Bioassays to select therapeutic and diagnostic mAbs have focused on two strategies: 1) identification of mAbs reactive with recombinant SAS1B, endogenous SAS1B, and with SAS1B accessible on cell surfaces; and 2) mAbs that recognize epitopes preserved in formalin fixed paraffin embedded sections that work as immuno-cytochemical probes. […] These transfected cells provide one effective screening tool to identify mAbs reactive with native epitopes on SAS1B. Another screening assay is to study SAS1B+ tumor cell lines by immunofluorescence microscopy and FACS. mAbs that recognize SAS1B at the surface of live cells and gate specific cell populations by FACS have been isolated. […] Efforts to identify mAbs that localize SAS1B in fixed embedded sections have also yielded reagents of utility for histopathology. […] Thus the non-human primate ovary can be used as a positive control tissue for studying the histopathology of tumor specimens with these reagents.
# renal carcinoma cells = assay: ADC assay on renal carcinoma cells; assay type: cell-based; details: 15 nM Fab-DMDM, 4 days
# Protocol: The cytotoxic effect of anti-EGFR (AY13), anti-SAS1B (SB2) and anti-CABYR (3A4) monoclonal antibodies on renal carcinoma cells were tested by ADC assay. An average of 3 experiments in triplicate is reported.
Specifically binds mouse and human SAS1B (mouse SAS1B),Molecule,Binding of SAS1B on live cells (SAS1B+ tumor cell lines),Cytotoxic effect (renal carcinoma cells)
Yes,"SB1: mouse anti-SAS1B monoclonal antibody, IgG2a; VH SEQ ID NO:12, VL SEQ ID NO:13 (antibody, listed as Mus musculus, V domains shown) VH: EVQLQQSGPELVKPGSSVKISCKASGYTFTDYNMDWVKQSHGKSLEWIGAINPNNGGTSYNQKFKGKATLTVDKSSSTAYMELRSLTSEDSAVYYCATNEYWGQGTTLTVSS VL: NIVMTQSPKSMSMSVGERVTLSCKASENVGTYVSWYQQKPEQSPKLLIYGASNRYTGVPDRFTGSGSATDFTLTISSVQAEDLADYHCGQSYSYPWTFGGGTKLEIK",,
,"SB2: mouse anti-human SAS1B monoclonal antibody, IgG2b; VH SEQ ID NO:14, VL SEQ ID NO:15 (antibody, listed as Mus musculus, V domains shown) VH: EVQLQQSGPELVKPGSSVKISCKASGYTFTDYNMVWVKQSHGKSLEWIGAVNPNNGGTSYNQKFKGKATLTVDKSSSTAYMELRSLTSEDSAVYYCVPNWDWFAYWGQGTLVTVSA VL: DVLMTQTPLSLPVSLGDQASISCRSSQSLVHSNGNTYLEWYLQKPGQSPNLLIYKVSNRFSGVPDRFSGSGSGTDFTLKISRVEAEDLGVYYCFQGSHVPFTFGSGTKLEIK",bind SAS1B on live cells,"cytotoxic effect at 0.01, 0.1 nM and higher concentrations"
